Measurements as given in the DeepSol protein solubility set.

Assay: soluble on expression in E. coli; label from the status in PepcDB or PDB records
For “MGSDKIHHHHHHMKEVLEVLPKTMKQLVENCKQYDALEEIRVRIGRPLECIAHGEVFFYDYIVTADDAIYLLNKLSHFSIYTMEEELKRGYVTLRGGHRIGLAGKVITEKSTVKMIRDVSSFNIRIARQKIGIAEPLLPYLYESRWLNTMVIGPPQTGKTTLLRDVARCMSQGVSTSKIPSCKVGIVDERSEIAGCVKGIPQYDFGTRVDVLDACPKAEGMMMMIRSMSPDILIVDEIGRKEDSEAIMEAVHAGVQLFISAHGFSYDDVVKRPSLKAVLELGIFDRFVELSKARGPGTVMQVKDKYGKPVLPHRKAESVC”, the “soluble on expression in E. coli” value was “not soluble”. For “MERLDFSSIIRKDREEHKSKKFEGTFLEYLEIVKENPEITMLAHQRMYKLITEPGVTVIRTEENPRLRRIYGNDIIKKYKFFEDEFFGIDKTIMKIVRYFHSAAMAGEEARQVLYLVGPVGAGKSSLMEALKRALEMSPPIYALKGCPMREEPLHLVPKHLRKEFEEILNVRIEGDLCPICRYRLKNEYNGEYERFPVETVDFSIRSRKGIGVVPPVDPNNQDTSVLIGSVDISKIDLYPEDDPRVLSLNGAFNVGNRGIVEFIEVFKNETEYLHTMITATQEKSIPSPGKGSMIYFDGIILAHSNEAEWNKFKSDHTNEAILDRIVKIEVPYCLELNEEIKIYEKILRKSKFDAHIAPHTIEIAAMFAILTRLAPSNKVDPMTKLKIYNGEEIIEKGMTKKVDIFELKEEAPREGMTGISTRFIMKVLDTTLSESEHNCINPISVMETLVKSIKELSISEEERERYLRFVQDSIRKEYNKILEREITKAFIHGYKEQAESLFNNYLDHAEAFVNKSKIKDRNTGEELEPDEKFLRSIEEQIGITDTAAKGFRADVTAYMFYVLRNGGKLDYTSYEPLKEAIEKKLTSSVRELSRVITQAKVRDKEQSEKYDTMVQEMKNNGYCDHCCNVILKYAANNLWKD”, the “soluble on expression in E. coli” value was “soluble”. With “MGHHHHHHSHMTDDKDVLRDVWFGRIPTCFTLYQDEITEREAEPYYLLLPRVSYLTLVTDKVKKHFQKVMRQEDISEIWFEYEGTPLKWHYPIGLLFDLLASSSALPWNITVHFKSFPEKDLLHCPSKDAIEAHFMSCMKEADALKHKSQVINEMQKKDHKQLWMGLQNDRFDQFWAINRKLMEYPAEENGFRYIPFRIYQTTTERPFIQKLFRPVAADGQLHTLGDLLKEVCPSAIDPEDGEKKNQVMIHGIEPMLETPLQWLSEHLSYPDNFLHISIIPQPTD” the “soluble on expression in E. coli” value was “not soluble”. For “MSLHIVVIGAGIVGASTALELQRDGHRVTLVEPGQPGGPQAASFGNGAWLSPASVVPMSMPGLWKKVPGYLMDPLGPLTIRWTALPALAPWLLRFIAAGATVPKVEATARALKALLSDAPERHTALAAEAGLADLVERKGLLYAYPDRAAFEAEALAWRLRRDNGIVWRELDGPALKAFEPTLHPRYGFGALVEAGAHCVDPGAYVAGLVAFAESRGLTRIEAAATGFDIVGGRLQAVRTAKGSVPCDRAVIAAGIHSRALAAEAGDKVSLASERGYHVVVATPESGPHLPVMPSDGKMANTPTRAGLRASGQVELAAVAAAPNWKRADVLLDHLLNTYPGLPRQVPEARLSRWLGHRPSTPDGVPVIGQASACTDIVHAFGHGHVGLASGPITGRLVADIIAGRPPERDIRPYAAARFRREGHHHHHH”, the “soluble on expression in E. coli” value was “soluble”. In the case of “MYKILRTEKSWIEGSAVEQVKKLASLKGVENVIGYPDLHPGKTPIGISIITKDVIYPHLIGNDIGCSISLFETSELKRKFKVEKVMKTLQNSDLKNEIKKDFNLGTIGGGNHFAEFTLVDKILDESETTNFDKNKVYLLVHSGSRGLGEEILRKYIDYYSCQNGLAVNSEGFNNYISDYKKAVVFAKENRQLIAKNLCQLLNLKAFDLKIEAIHNGLELREDYIIHRKGAATALNKYVVIAGSRGDYSYIVKPINSSLETGFSIAHGAGRKWKRSGCKEKLQGKFSKKAIRNRSFSYNLICSNTNLVYEEAPEAYKNIDRVIDDLLSFNLIKVVARLKPLITYKDLEHHHHHH”, the “soluble on expression in E. coli” value is reported as “not soluble”. For “LTELYDAIPASIIIIDERMRLIGWNRFSRDTINGLSDNEMPGINPMKRVHPDDLPEMIRKMRNVIDLDIELSAEFRMYHKSGPPYKWAMCRGKRTIIEGKTCVVAVVTEIT”, the “soluble on expression in E. coli” value was “not soluble”.
